Data reported in patent US9289492B2, “Collecting ovarian cancer stem cells from ovarian cancer cells” (The General Hospital Corporation, priority 2007, dated 2016).
Read-outs that look alike come from different tables or passages of the source.

Tests used:
MOVCAR 7 cells = assay: Hoechst 33342 side population flow cytometry with verapamil, MOVCAR 7; assay type: cell-based, mouse; settings: MOVCAR 7, verapamil 25-50 μg/ml, Hoechst 33342 flow cytometry
Description: (§1) Flow cytometry was performed in the Department of Pathology and Center for Regenerative Medicine Flow Cytometry Laboratory according to their published protocols (36). Mouse and human ovarian cancer SP sorting and immunophenotyping were performed as described in Supporting Methods, which is published as supporting information on the PNAS web site.
(§2) SP cells were identified and electronically gated on a Digital Vantage cell sorter (Becton Dickinson) after excitation of the Hoechst dye with 150 mW of 350 nm UV light. SP fluorescence emissions were directed toward a 610-nm dichroic filter and captured simultaneously through both a blue (450-nm) band-pass and a red (675-nm) long-pass filter on a linearly amplified fluorescence scale.

4306 cells = assay: Hoechst 33342 side population flow cytometry with verapamil, 4306; assay type: cell-based, mouse; settings: 4306, verapamil 25-50 μg/ml, Hoechst 33342 flow cytometry
Description: as §1, §2

MOVCAR 7 SP cells = assay: MTT proliferation assay, MOVCAR 7 SP cells; assay type: cell-based, mouse; settings: for inhibition at 0.004 µM: Mus musculus, 4 nM drug, compared with vehicle-treated controls, read-out: inhibition (MTT growth inhibition)
Description: (§3) MTT assay was used to assess proliferation inhibition. MOVCAR 7 and 4306 cells were harvested, sorted for SPs and NSPs, and plated in the inner wells of 96-well plates at 1,000 cells per well in 200 μl of medium per well. […] At day 5 or 7 of incubation, cell viability was quantified by measuring mitochondrial activity (38) on an ELISA plate reader at an absorbance of 550 nm to generate an OD proportional to the relative abundance of live cells in a given well.
(§4) Statistical Analysis. In MTT assays, MIS-, doxorubicin-, and paclitaxel-treated and untreated samples were analyzed by using the univariant two-tailed Student t test, with P ≦0.05conferring statistical significance. All experiments were performed in triplicate. In ovarian somatic stem cell studies, all p-values were calculated with the use of two-tailed student's t-test. Differences with p-values less than 0.05 were considered significant.

MOVCAR 7 NSP cells = assay: MTT proliferation assay, MOVCAR 7 NSP cells; assay type: cell-based, mouse; settings: for inhibition at 0.004 µM: Mus musculus, read-out: inhibition (MTT growth inhibition)
Description: as §3, §4

BCRP1 transporter = molecular target: T1, BCRP1 transporter (Homo sapiens, UniProt Q9UNQ0); settings: reference 23; cited from earlier work
T1 sequence (Q9UNQ0 1-655): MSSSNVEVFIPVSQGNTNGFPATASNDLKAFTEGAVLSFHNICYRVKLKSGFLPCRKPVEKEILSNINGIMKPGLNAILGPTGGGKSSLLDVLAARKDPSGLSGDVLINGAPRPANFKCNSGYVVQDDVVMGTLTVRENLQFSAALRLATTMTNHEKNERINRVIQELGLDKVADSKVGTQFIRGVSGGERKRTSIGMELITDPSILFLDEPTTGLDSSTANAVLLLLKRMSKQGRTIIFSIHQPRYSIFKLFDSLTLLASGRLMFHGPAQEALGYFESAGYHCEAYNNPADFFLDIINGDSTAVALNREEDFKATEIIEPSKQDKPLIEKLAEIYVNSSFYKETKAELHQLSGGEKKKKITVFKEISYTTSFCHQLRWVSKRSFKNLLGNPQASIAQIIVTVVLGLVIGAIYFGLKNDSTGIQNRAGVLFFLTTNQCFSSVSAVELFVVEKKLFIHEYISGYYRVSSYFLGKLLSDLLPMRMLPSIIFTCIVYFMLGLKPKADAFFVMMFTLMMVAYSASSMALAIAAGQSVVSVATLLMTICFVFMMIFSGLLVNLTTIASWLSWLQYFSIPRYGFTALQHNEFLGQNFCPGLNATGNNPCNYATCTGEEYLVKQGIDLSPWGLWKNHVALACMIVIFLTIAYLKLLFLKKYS

4306 SP cells = assay: MTT proliferation assay, 4306 SP cells; assay type: cell-based, mouse
Description: as §3, §4

OVCAR 8 cells = settings: references 25, 35; cited from earlier work
MOVCAR 7 [1] = settings: in vivo, reference 25; cited from earlier work
MOVCAR 8 cells = settings: references 25, 35; cited from earlier work
[2] = Organ culture bioassay for MIS; settings: purified recombinant human MIS
Description: The human MIS gene was transfected into CHO cells, amplified, purified, and maintained in a dedicated facility in the Pediatric Surgical Research Laboratories for use in this study as described in ref.39. MIS levels were measured by using human MIS-specific ELISA (40). MIS was purified by a combination of lectin affinity chromatography and FPLC anion-exchange chromatography (39).

[3] = tested on: human anchorage-independent Mullerian tumors; settings: soft agarose, reference 34; cited from earlier work
MOVCAR 7 [4] = settings: in vitro, reference 25; cited from earlier work
[5] = 4 nM drug, versus vehicle-treated controls

COc1ccc(CCN(C)CCCC(C#N)(c2ccc(OC)c(OC)c2)C(C)C)cc1OC (stereo not drawn) [Verapamil, verapamil]
elimination of the SP (MOVCAR 7 cells): effectively eliminated the SP
elimination of the SP (4306 cells): effectively eliminated the SP

CC(=O)O[C@H]1C(=O)[C@@]2(C)[C@H]([C@H](OC(=O)c3ccccc3)[C@]3(O)C[C@H](OC(=O)[C@H](O)[C@@H](NC(=O)c4ccccc4)c4ccccc4)C(C)=C1C3(C)C)[C@]1(OC(C)=O)CO[C@@H]1C[C@@H]2O [paclitaxel]
inhibition at 0.004 µM (MOVCAR 7 SP cells; MOVCAR 7 SP cells): 85%
inhibition (MTT growth inhibition) (MOVCAR 7 NSP cells; [5]): 88%
inhibition at 0.004 µM (MOVCAR 7 NSP cells; [5]): 83%

COc1cccc2c1C(=O)c1c(O)c3c(c(O)c1C2=O)C[C@@](O)(C(=O)CO)C[C@@H]3O[C@H]1C[C@H](N)[C@H](O)[C@H](C)O1 [doxorubicin]
inhibition at 0.004 µM (MOVCAR 7 SP cells; MOVCAR 7 SP cells): 30%
substrate of the BCRP1 transporter (BCRP1 transporter): is a substrate
inhibition at 0.004 µM (MOVCAR 7 NSP cells; [5]): 81%

B1: MIS: Recombinant human Mullerian Inhibiting Substance protein (SEQ ID NO: 16), produced in CHO cells and purified (protein, listed as Homo sapiens)
chain: MRDLPLTSLALVLSALGALLGTEALRAEEPAVGTSGLIFREDLDWPPGSPQEPLCLVALGGDSNGSSSPLRVVGALSAYEQAFLGAVQRARWGPRDLATFGVCNTGDRQAALPSLRRLGAWLRDPGGQRLVVLHLEEVTWEPTPSLRFQEPPPGGAGPPELALLVLYPGPGPEVTVTRAGLPGAQSLCPSRDTRYLVLAVDRPAGAWRGSGLALTLQPRGEDSRLSTARLQALLFGDDHRCFTRMTPALLLLPRSEPAPLPAHGQLDTVPFPPPRPSAELEESPPSADPFLETLTRLVRALRVPPARASAPRLALDPDALAGFPQGLVNLSDPAALERLLDGEEPLLLLLRPTAATTGDPAPLHDPTSAPWATALARRVAAELQAAAAELRSLPGLPPATAPLLARLLALCPGGPGGLGDPLRALLLLKALQGLRVEWRGRDPRGPGRAQRSAGATAADGPCALRELSVDLRAERSVLIPETYQANNCQGVCGWPQSDRNPRYGNHVVLLLKMQARGAALARPPCCVPTAYAGKLLISLSEERISAHHVPNMVATECGCR
inhibition by MIS (MTT) (4306 SP cells; 4306 SP cells after sort 2, 10 μg/ml MIS): 60%
inhibition by MIS (MTT) (4306 SP cells; 4306 SP cells after sort 3, 10 μg/ml MIS, not significant): 17%
inhibition by MIS (MTT) (4306 SP cells; 4306 SP cells, first sort, 10 μg/ml MIS, vs. vehicle control): 37%
inhibition by MIS (MTT) (MOVCAR 7 SP cells; MOVCAR 7 SP cells after sort 2, 10 μg/ml MIS): 93%
inhibition by MIS (MTT) (MOVCAR 7 SP cells; MOVCAR 7 SP cells after sort 3, 10 μg/ml MIS): 94%
inhibition by MIS (MTT) (MOVCAR 7 SP cells; MOVCAR 7 SP cells, first sort, 10 μg/ml MIS, versus vehicle): 86%
inhibition of OVCAR 8 cells (OVCAR 8 cells): inhibits
inhibition of MOVCAR 7 (MOVCAR 7 [1]): inhibit
inhibition of MOVCAR 8 cells (MOVCAR 8 cells): inhibits
regression in organ culture bioassay [2]: causes regression
inhibition of anchorage-independent tumors [3]: inhibits
inhibition by MIS (MTT) (MOVCAR 7 NSP cells; first sort, 10 μg/ml MIS, versus vehicle): 93%
inhibition of MOVCAR 7 (MOVCAR 7 [4]): inhibit
